Data on four molecules can be found in patent publication US11584938B2, “Plant EPSPS mutant containing L195P and S247G mutations and encoding gene and use thereof” (GEVOTO LLC, priority 2017, dated 2023).

B1: T6: wheat EPSPS mutant, SEQ ID NO: 26, mutations L216(195)P, S269(247)G and P118(101)S (protein)
chain: MATSVAAPAAPAGAEEVVLQPIREISGAVQLPGSKSLSNRILLLSALSEGTTVVDNLLNSEDVHYMLEALEALGLSVEADKVAKRAVVVGCGGRFPVEKDAKEEVKLFLGNAGTAMRSLTAAVVAAGGNATYVLDGVPRMRERPIGDLVVGLQQLGADVDCFLGTNCPPVRINGKGGLPGGKVKLSGSISSQYLSSLLMAAPLALEDVEIEIIDKPISVPYVEMTLKLMEHFGVTAEHSDSWDRFYIKGGQKYKSPGNAYVEGDASSAGYFLAGAAITGGTVTVEGCGTTSLQGDVKFAEVLEMMGAKVTWTDTSVTVTGPPRQPFGRKHLKAVDVNMNKMPDVAMTLAVVALFADGPTAIRDVASWRVKETERMVAIRTELTKLGATVEEGPDYCIITPPEKLNITAIDTYDDHRMAMAFSLAACAEVPVTIRDPGCTRKTFPNYFDVLSTFVKN
B2: R0: wild-type rice EPSPS, amino acid sequence SEQ ID NO: 28; control (protein, listed as Oryza sativa)
chain: MASNAAAAAAKAEEIVLQPIREISGAVQLPGSKSLSNRILLLSALSEGTTVVDNLLNSEDVHYMLEALKALGLSVEADKVAKRAVVVGCGGKFPVEKDAKEEVQLFLGNAGTAMRPLTAAVTAAGGNATYVLDGVPRMRERPIGDLVVGLKQLGADVDCFLGTECPPVRVKGIGGLPGGKVKLSGSISSQYLSALLMAAPLALGDVEIEIIDKLISIPYVEMTLRLMERFGVKAEHSDSWDRFYIKGGQKYKSPGNAYVEGDASSASYFLAGAAITGGTVTVQGCGTTSLQGDVKFAEVLEMMGAKVTWTDTSVTVTGPPREPYGKKHLKAVDVNMNKMPDVAMTLAVVALFADGPTAIRDVASWRVKETERMVAIRTELTKLGASVEEGPDYCIITPPEKLNITAIDTYDDHRMAMAFSLAACADVPVTIRDPGCTRKTFPNYFDVLSTFVRN
B3: R2: rice EPSPS mutant, SEQ ID NO: 32, merely containing the mutation P116(101)S; control (protein)
chain: B2 chain with P116S
B4: R1: rice EPSPS mutant, SEQ ID NO: 30, mutation L214(195)P (protein)
chain: B2 chain with L214P

Changes are numbered by the printed parent chain.

One assay concerns transgenic rice plants. In words: glyphosate resistance of the EPSPS mutant in transgenic rice plants sprayed with Roundup 41% ammonium glyphosate. Format: in vivo, rice (Nipponbare). To be noted: 1× dosage 1060 g/hectare glyphosate sprayed; recorded on 10th day. In outline: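 EPSPS mutant genes were cloned into pGVP1 and introduced into Nipponbare rice embryo-derived calluses via Agrobacterium EHA105 (OD 0.2, 10 min infection, 2–3 days co-culture at 25 °C in the dark). Calluses went through recovery, two 14-day screening rounds at 30 °C, two differentiation rounds and rooting to regenerate transgenic plants.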
Turning to B1, the “%++&+++ (percentage of plant having medium and high glyphosate resistance to the total number of plants observed)” value is given as 85.9%; the “number of plants denoted by + (low glyphosate resistance)” value (“number … (low glyphosate resistance)” below) is 7; the “number of plants denoted by ++ (medium glyphosate resistance)” value (“number … (medium glyphosate resistance)” below) stood at 15; the “number of plants denoted by +++ (high glyphosate resistance)” value (from here on “number of plants denoted by +++”) turned out to be 52. Also, the “number of plants denoted by − (no glyphosate resistance)” value (“number … (no glyphosate resistance)” below) came to 4.
For B2 the same measures were 0.0%, 1, 0, 0 and 30.
For B3 the same measures were 81.0%, 9, 10, 37 and 2.
For B4 the same measures were 63.2%, 1, 1, 11 and 6.

Staying with this assay, now noted: 1× glyphosate dosage.
Turning to B1, the “glyphosate resistance / survival of the rice transformed by the EPSPS, in words” value (shortened to “glyphosate resistance / survival”) is given as “had relatively high resistance to glyphosate”.
Consider B2, for which the “glyphosate resistance / survival” value is “had no resistance, one was seriously damaged, and all the others died”.
On the same count and under the same terms, the value for B3 was “had relatively high resistance to glyphosate”.
Same read-out and setting: the value for B4 was “obviously superior to that of the rice seedlings transformed by R0”.

Staying with this assay, now noted: 2× dosage 2120 g/hectare sprayed to plants surviving 1×; recorded 10 days later.
For B1, the “%++&+++ (percentage of plant having medium and high glyphosate resistance to the total number of plants observed)” value is listed as 0.0%; the “number … (low glyphosate resistance)” value amounted to 4; the “number … (medium glyphosate resistance)” value was 25; the “number of plants denoted by +++” value amounted to 41. Moreover, the “number … (no glyphosate resistance)” value is listed as 8.
For B2 the same measures were 45.8%, 0, 0, 0 and 31.
For B3 the same measures were 26.8%, 17, 18, 14 and 9.
For B4, the “%++&+++ (percentage of plant having medium and high glyphosate resistance to the total number of plants observed)” value worked out at 55.2%; the “number … (low glyphosate resistance)” value is 3; the “number … (medium glyphosate resistance)” value was determined as 10; the “number of plants denoted by +++” value was found to be 1. Also, the “number … (no glyphosate resistance)” value came to 10.

The assay is the same for the next values; noted with them: 2× glyphosate dosage.
B3: the “glyphosate resistance / survival” value is “had relatively high resistance to glyphosate”.
Still for that read-out and setting: the value for B4 was “some of the transgenic rice seedlings transformed by R1 and R4 still survived”.

Staying with this assay, now noted: 5× dosage 5300 g/hectare sprayed to plants surviving 2×; recorded 10 days later.
With B1, the “&++&+++ (percentage of plant having medium and high glyphosate resistance to the total number of plants observed)” value is 76.9%; the “number … (low glyphosate resistance)” value was found to be 9; the “number … (medium glyphosate resistance)” value turned out to be 37; the “number of plants denoted by +++” value is 23. Moreover, the “number … (no glyphosate resistance)” value is 9.
Take B2: the “&++&+++ (percentage of plant having medium and high glyphosate resistance to the total number of plants observed)” value is given as 0.0%; the “number … (low glyphosate resistance)” value amounted to 0; the “number … (medium glyphosate resistance)” value is 0; the “number of plants denoted by +++” value is on record as 0. Further, the “number … (no glyphosate resistance)” value was 31.
On to B3, for which the “&++&+++ (percentage of plant having medium and high glyphosate resistance to the total number of plants observed)” value was 3.4%; the “number … (low glyphosate resistance)” value came out at 40; the “number … (medium glyphosate resistance)” value turned out to be 2; the “number of plants denoted by +++” value turned out to be 0. Also, the “number … (no glyphosate resistance)” value turned out to be 16.
On to B4, for which the “&++&+++ (percentage of plant having medium and high glyphosate resistance to the total number of plants observed)” value worked out at 4.2%; the “number … (low glyphosate resistance)” value is listed as 9; the “number … (medium glyphosate resistance)” value was 1; the “number of plants denoted by +++” value worked out at 0. Moreover, the “number … (no glyphosate resistance)” value stood at 14.

Still in this assay, the particulars now being: 5× glyphosate dosage.
Regarding B4, the “glyphosate resistance / survival” value is “some of the transgenic rice seedlings transformed by R1 and R4 still survived”.

The assay is the same for the next values; noted with them: 20× dosage 21200 g/hectare sprayed to plants surviving 5×; recorded 10 days later.
On to B1, for which the “&++&+++ (percentage of plant having medium and high glyphosate resistance to the total number of plants observed)” value is recorded as 71.8%; the “number … (low glyphosate resistance)” value was 7; the “number … (medium glyphosate resistance)” value is on record as 56; the “number of plants denoted by +++” value worked out at 0. For the same molecule, the “number … (no glyphosate resistance)” value worked out at 15.
For B2 the same measures were 0.0%, 0, 0, 0 and 31.
As to B3, the “&++&+++ (percentage of plant having medium and high glyphosate resistance to the total number of plants observed)” value was found to be 0.0%; the “number … (low glyphosate resistance)” value came out at 1; the “number … (medium glyphosate resistance)” value was 0; the “number of plants denoted by +++” value is listed as 0. Moreover, the “number … (no glyphosate resistance)” value is 57.
As for B4, the “&++&+++ (percentage of plant having medium and high glyphosate resistance to the total number of plants observed)” value is given as 0.0%; the “number … (low glyphosate resistance)” value worked out at 4; the “number … (medium glyphosate resistance)” value was 0; the “number of plants denoted by +++” value is 0. In addition, the “number … (no glyphosate resistance)” value was 20.

The assay is the same for the next values; noted with them: 20× glyphosate dosage.
Take B4: the “glyphosate resistance / survival” value is “some of the transgenic rice seedlings transformed by R1 and R4 still survived”.
